In general, stoichiometry N refers to a count of units in the complex or per binding partner.

This passage reports stoichiometry N and mass fraction of the 6-mer peak results from article PMC8012802.

Common to all, as to assay: SEC-MALS; MiniDAWN TREOS II with Superdex 200 10/300 increase, 20 mM Tris-HCl pH 8.0, 100 mM NaCl, 0.5 ml/min; monomer and 6-mer peaks
Test [1] concerns the target OrfG central domain (OrfG_(64–204): from Ser64 to Ala204) (Streptococcus thermophilus (ICESt3)).
The target of test [2] is OrfG C-terminal subdomain (OrfG_(223–331): from Ala223 to Asp331) (Streptococcus thermophilus (ICESt3)).
In test [3] the target is OrfG soluble domain (OrfG_(64–331): from Ser64 to Asp331) (Streptococcus thermophilus (ICESt3)).

In the case of “OrfG central domain (OrfG_(64–204): from Ser64 to Ala204) (domain or fragment)”, in test [1], the stoichiometry N was found to be 6.

The substance “OrfG C-terminal subdomain (OrfG_(223–331): from Ala223 to Asp331) (domain or fragment)” came in with a stoichiometry N in test [2] of 6.

Turning to “OrfG soluble domain (OrfG_(64–331): from Ser64 to Asp331) (domain or fragment)”, in test [3], the mass fraction of the 6-mer peak stood at 2.7% and the stoichiometry N was found to be 6.
